Assays:
[1] = target: mouse cardiac TnI A117G mutation (mouse, UniProt P48787 1-211, A117G); experiment: ELISA
[2] = target: mouse cardiac TnI K118C mutation (mouse, UniProt P48787 1-211, K118C); experiment: ELISA
Sequence of mouse cardiac TnI K118C mutation (P48787 whole entry K118C): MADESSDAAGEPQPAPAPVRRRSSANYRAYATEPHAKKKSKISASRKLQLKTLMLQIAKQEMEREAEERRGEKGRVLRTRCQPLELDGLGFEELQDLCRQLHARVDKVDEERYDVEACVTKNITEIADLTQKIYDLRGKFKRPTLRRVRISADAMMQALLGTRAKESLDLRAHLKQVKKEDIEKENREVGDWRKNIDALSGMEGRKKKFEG

Sequence of mouse cardiac TnI A117G mutation (P48787 whole entry A117G): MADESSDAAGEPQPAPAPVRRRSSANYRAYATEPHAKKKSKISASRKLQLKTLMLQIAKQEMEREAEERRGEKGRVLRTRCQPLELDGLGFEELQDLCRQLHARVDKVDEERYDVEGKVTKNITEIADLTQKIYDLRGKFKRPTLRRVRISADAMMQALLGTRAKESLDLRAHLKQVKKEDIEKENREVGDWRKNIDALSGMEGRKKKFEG

B1: Chicken fast TnC (natural protein)
chain: not shown
[1]
  binding result: binds
[2]
  binding result: binds

— paper PMC4325132 (FEBS Open Bio, 2015)
